Test results published in patent US20050037394.
pKd: −log10 of the molar value.

Experiments:
Experiment in all cases: filter
IFN-gamma (Homo sapiens) = biological target: T1, IFN-gamma (Homo sapiens) (UniProt P01579); conditions: dRmY: deoxy A,G, 2'-OMe C,U
T1 sequence: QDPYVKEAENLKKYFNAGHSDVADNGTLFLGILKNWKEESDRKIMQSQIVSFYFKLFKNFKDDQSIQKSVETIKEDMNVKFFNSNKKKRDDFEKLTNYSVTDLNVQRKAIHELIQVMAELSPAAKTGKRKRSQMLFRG

[1] = biological target: Complement C5 full length (Homo sapiens) (UniProt P01031+P01031); conditions: dRmY: deoxy A,G, 2'-OMe C,U, plateau about 10%
Complement C5 full length (Homo sapiens), sequence (P01031 19-673, chain 1 of 2): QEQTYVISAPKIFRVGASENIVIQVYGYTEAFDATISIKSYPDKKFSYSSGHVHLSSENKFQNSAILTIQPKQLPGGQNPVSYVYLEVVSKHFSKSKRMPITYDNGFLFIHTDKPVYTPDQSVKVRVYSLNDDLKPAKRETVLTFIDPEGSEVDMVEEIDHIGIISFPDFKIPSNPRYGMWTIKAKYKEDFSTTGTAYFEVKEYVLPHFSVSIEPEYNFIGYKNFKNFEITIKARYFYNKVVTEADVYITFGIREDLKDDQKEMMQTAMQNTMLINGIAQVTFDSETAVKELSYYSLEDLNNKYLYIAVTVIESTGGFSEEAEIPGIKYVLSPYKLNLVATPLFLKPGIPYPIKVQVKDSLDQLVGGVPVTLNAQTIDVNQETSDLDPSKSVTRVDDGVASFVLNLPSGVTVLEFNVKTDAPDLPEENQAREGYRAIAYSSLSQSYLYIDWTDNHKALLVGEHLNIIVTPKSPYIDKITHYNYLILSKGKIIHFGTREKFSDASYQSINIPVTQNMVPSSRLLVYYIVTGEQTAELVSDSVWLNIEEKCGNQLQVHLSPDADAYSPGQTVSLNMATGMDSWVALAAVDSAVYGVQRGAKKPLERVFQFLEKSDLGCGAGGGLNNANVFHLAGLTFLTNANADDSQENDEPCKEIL
Complement C5 full length (Homo sapiens), sequence (P01031 678-1676, chain 2 of 2): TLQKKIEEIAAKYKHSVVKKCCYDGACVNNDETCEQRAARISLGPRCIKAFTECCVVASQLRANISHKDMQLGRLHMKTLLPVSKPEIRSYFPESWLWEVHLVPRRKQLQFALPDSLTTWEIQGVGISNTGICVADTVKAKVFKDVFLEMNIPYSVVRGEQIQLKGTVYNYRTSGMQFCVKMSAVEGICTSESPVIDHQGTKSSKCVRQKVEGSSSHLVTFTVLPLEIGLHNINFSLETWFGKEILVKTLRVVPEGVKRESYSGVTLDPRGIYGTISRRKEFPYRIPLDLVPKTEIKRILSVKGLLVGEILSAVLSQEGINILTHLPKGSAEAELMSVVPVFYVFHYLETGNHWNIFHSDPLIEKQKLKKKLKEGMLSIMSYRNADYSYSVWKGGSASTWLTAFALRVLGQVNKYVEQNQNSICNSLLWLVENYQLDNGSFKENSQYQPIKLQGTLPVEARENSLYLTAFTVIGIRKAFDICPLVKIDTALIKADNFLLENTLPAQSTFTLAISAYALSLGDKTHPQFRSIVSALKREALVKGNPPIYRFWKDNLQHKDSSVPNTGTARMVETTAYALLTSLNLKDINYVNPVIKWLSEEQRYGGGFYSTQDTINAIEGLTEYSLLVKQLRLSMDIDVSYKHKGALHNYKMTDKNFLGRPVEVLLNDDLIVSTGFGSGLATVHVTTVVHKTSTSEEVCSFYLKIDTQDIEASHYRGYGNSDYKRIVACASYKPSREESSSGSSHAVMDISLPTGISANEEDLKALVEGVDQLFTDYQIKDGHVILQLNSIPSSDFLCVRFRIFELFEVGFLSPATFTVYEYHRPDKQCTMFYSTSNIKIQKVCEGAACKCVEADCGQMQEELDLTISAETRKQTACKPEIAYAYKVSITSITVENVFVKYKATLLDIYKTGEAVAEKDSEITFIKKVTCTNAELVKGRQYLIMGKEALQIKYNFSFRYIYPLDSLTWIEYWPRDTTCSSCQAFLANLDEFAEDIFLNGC

IL-23 (Homo sapiens) = IL-23 (Homo sapiens) (UniProt Q9NPF7+P29460); conditions: approximately 500 nM or higher, DPBS, 0.1 mg/ml tRNA
IL-23 (Homo sapiens), sequence (Q9NPF7 20-189, chain 1 of 2): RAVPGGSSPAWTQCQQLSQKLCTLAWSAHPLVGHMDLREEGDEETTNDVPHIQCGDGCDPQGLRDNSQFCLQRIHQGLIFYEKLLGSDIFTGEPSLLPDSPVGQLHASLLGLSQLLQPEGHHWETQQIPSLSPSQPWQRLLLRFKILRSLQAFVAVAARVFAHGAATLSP
IL-23 (Homo sapiens), sequence (P29460 23-328, chain 2 of 2): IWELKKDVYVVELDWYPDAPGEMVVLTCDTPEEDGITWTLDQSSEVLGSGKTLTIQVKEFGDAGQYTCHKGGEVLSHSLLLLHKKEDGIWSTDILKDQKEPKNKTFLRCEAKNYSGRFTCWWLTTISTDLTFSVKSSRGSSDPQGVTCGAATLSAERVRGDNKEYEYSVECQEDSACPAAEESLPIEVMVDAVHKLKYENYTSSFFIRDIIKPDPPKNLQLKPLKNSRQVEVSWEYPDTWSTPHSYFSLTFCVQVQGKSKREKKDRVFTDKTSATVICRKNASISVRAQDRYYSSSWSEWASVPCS

PDGF-BB (Homo sapiens) = PDGF-BB (Homo sapiens) (UniProt P01127); conditions: 2'-OMe A,C,U; 2'-OH G; approximately 950 nM or higher; naive pool also binds PDGF-BB
PDGF-BB (Homo sapiens), sequence (P01127 82-190): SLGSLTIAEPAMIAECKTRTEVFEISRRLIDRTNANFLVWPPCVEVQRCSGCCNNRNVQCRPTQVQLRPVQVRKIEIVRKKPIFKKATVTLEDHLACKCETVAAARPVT

IgE (Homo sapiens) = conditions: 2'-OMe C,U; 2'-OH A,G; approximately 500 nM or higher
[2] = high salt selection (250 mM NaCl)

## GGGAGAGGAGAGAACGUUCUACNNNNNNNNNNNNNNNNNNNNNNNNNNNNNNGGUCGAUCGAUCGAUCAUCGAUG [IFN-gamma round 12 dRmY pool, normal stringency]
IFN-gamma (Homo sapiens); 1x DPBS, tRNA, ssDNA, BSA
  pKd: 6.35

## GGGAGAGGAGAGAACGUUCUACNNNNNNNNNNNNNNNNNNNNNNNNNNNNNNGGUCGAUCGAUCGAUCAUCGAUG [C5 full-length selection round 10 dRmY pool]
[1]; 1x DPBS, tRNA and salmon sperm DNA competitor
  pKd: 6.94

## GGGAGAGGAGAGAACGUUCUACNNNNNNNNNNNNNNNNNNNNNNNNNNNNNNGGUCGAUCGAUCGAUCAUCGAUG [IFN-gamma round 12 dRmY pool, high salt]
IFN-gamma (Homo sapiens); [2]
  pKd: 6.23

## GGGAGAGGAGAGAACGUUCUACNNNNNNNNNNNNNNNNNNNNNNNNNNNNNNGGUCGAUCGAUCGAUCAUCGAUG [C5 partially trypsinized selection round 10 dRmY pool]
[1]; selection on partially trypsinized C5
  pKd: 6.82

## GGGAGAGGAGAGAACGUUCUACNNNNNNNNNNNNNNNNNNNNNNNNNNNNNNCGCUGUCGAUCGAUCGAUCGAUG [IL-23 rRmY round 9 pool]
IL-23 (Homo sapiens); 2'-OMe C,U, 2'-OH A,G
  pKd: < 6.30

## GGGNGNGGNGNGNNCGUUCUNCNNNNNNNNNNNNNNNNNNNNNNNNNNNNNNCGCUGUCGNUCGNUCGNUCGNUG [IL-23 rGmH round 10 pool]
IL-23 (Homo sapiens); 2'-OMe A,C,U, 2'-OH G
  pKd: < 6.30

## GGGNGNGGNGNGNNCGUUCUNCNNNNNNNNNNNNNNNNNNNNNNNNNNNNNNCGCUGUCGNUCGNUCGNUCGNUG [PDGF-BB rGmH round 10 pool]
PDGF-BB (Homo sapiens)
  pKd: < 6.02

## GGGAGAGGAGAGAACGUUCUACNNNNNNNNNNNNNNNNNNNNNNNNNNNNNNCGCUGUCGAUCGAUCGAUCGAUG [IgE rRmY round 6 pool]
IgE (Homo sapiens)
  pKd: < 6.30

## GGGAGAGGAGAGAACGUUCUACNNNNNNNNNNNNNNNNNNNNNNNNNNNNNNGGUCGAUCGAUCGAUCAUCGAUG [IFN-gamma round 10 dRmY pool, normal stringency]
IFN-gamma (Homo sapiens); 1x DPBS, tRNA, ssDNA, BSA
  pKd: 6.22

## GGGAGAGGAGAGAACGUUCUACNNNNNNNNNNNNNNNNNNNNNNNNNNNNNNGGUCGAUCGAUCGAUCAUCGAUG [IFN-gamma round 10 dRmY pool, high salt]
IFN-gamma (Homo sapiens); [2]
  pKd: 6.17
